For one molecule, Kd results are on record in article PMC3262080.

This data set has as its target HuR (UniProt Q15717 1-326). As to the kind of experiment: fluorescence anisotropy.

Chain of HuR (Q15717 whole entry): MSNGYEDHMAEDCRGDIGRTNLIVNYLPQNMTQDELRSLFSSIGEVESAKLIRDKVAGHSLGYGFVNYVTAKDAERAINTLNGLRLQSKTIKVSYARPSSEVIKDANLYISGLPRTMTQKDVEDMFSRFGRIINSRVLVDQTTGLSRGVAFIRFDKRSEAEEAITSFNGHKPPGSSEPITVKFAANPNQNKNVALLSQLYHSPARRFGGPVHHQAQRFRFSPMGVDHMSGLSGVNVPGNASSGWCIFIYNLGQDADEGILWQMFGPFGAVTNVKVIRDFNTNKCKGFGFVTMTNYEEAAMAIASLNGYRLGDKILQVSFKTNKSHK

Turning to UAGCAGCACGUAAAUAUUGGCG (ssRNA) [miR-16 (mature, 5'TMR-labeled)], the Kd was 120 ± 9 nM.
